The results in this text go back to patent publication US20090325259A1, “USE OF ADHESION MOLECULES AS BOND STRESS-ENHANCED NANOSCALE BINDING SWITCHES” (priority 2002, published 2009).

Assay [1] has as its target Monomannosylated BSA (monomannose conjugated to bovine serum albumin) (bovine) (UniProt P02769). The experiment in a line: parallel plate flow chamber; new bacteria appearing on 1Man-BSA surface.
Assay [2] has the same target.

Chain of Monomannosylated BSA (monomannose conjugated to bovine serum albumin) (bovine) (P02769 25-607 limits assumed): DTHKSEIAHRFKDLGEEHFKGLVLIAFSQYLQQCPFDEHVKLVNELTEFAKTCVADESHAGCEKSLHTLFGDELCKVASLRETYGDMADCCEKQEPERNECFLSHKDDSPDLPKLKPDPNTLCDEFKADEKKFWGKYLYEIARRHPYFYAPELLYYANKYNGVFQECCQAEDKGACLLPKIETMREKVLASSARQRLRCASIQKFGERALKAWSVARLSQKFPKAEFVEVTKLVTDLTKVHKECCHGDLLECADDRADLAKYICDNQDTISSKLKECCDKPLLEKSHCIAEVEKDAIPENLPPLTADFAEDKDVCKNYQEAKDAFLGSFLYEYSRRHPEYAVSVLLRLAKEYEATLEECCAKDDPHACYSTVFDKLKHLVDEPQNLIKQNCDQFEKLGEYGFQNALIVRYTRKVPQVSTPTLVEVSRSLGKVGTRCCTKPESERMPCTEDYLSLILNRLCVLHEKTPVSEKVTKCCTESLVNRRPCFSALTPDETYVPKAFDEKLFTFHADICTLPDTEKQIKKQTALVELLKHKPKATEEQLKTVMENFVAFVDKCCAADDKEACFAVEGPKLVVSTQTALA

In assay [1], “FimH-f18 (FimH adhesin variant of intestinal E. coli strain F18), in type I fimbriae on recombinant E. coli (from UniProt P08191 22-300)” yielded an initial attachments per minute in the field of view, at 0.5 dynes/cm^2 (attachments per minute) of 102; an initial attachments per minute in the field of view, at 3.6 dynes/cm^2 (attachments per minute) of 64; an initial attachments per minute in the field of view, at 7 dynes/cm^2 (attachments per minute) of 32. The substance also showed a first-order rate constant of the decline of stationary bacteria in assay [2] of 3 s⁻¹.
